The values below come from PMC11701221, “WhiA transcription factor provides feedback loop between translation and energy production in a genome-reduced bacterium” (Frontiers in Microbiology, 2024).

The term Kd denotes a measure of binding affinity in units of concentration.

The target of data set [1] is T1, Mgal-WhiA (Mycoplasmoides gallisepticum, UniProt A0A0F6CKV5).
T1 construct: E. coli BL21-Gold (DE3); monomer without DNA; Cy5 NHS-ester labelled for ATP MST
T1 sequence (A0A0F6CKV5 1-295): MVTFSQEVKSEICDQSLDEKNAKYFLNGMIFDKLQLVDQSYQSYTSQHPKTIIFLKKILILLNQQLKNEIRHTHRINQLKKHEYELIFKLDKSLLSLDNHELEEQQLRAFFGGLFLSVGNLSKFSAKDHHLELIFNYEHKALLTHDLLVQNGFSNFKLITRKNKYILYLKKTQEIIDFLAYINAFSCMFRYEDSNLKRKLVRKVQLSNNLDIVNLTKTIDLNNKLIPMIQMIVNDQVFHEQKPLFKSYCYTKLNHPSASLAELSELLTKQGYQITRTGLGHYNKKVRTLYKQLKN
Kind of data set: microscale thermophoresis, Cy5-labelled protein, Hill fit. It counts as binding. (In MST a laser heats a spot of the sample, and binding alters the fluorescence response.)

The target in data set [2] is T2, Mgal-WhiA (Mycoplasma gallisepticum S6, UniProt A0A0F6CKV5 1-295). In words: FRET; with Q3 core duplex; strong quenching; EMSA: 20 mM carbonate pH 9.8, 6% glycerol, 37 C 10 min, gel at 10 C; MST: PBS (10 mM Na phosphate pH 7.4, 140 mM NaCl, 3 mM KCl), 0.05% Tween-20, 50 mM imidazole, 50 nM duplex, 20 C. The note with it: protein: recombinant; label: 5' 6-FAM on strand 1; blunt.

The target of data set [3] is T2, Mgal-WhiA. Kind of data set: MST; 1 mM ATP; multistep curve, conflicts with EMSA; EMSA: 20 mM carbonate pH 9.8, 6% glycerol, 37 C 10 min, gel at 10 C; MST: PBS (10 mM Na phosphate pH 7.4, 140 mM NaCl, 3 mM KCl), 0.05% Tween-20, 50 mM imidazole, 50 nM duplex, 20 C. The conditions noted are these: protein: recombinant; label: 5' FAM (EMSA) or HEX (MST) on strand 1; blunt.

Another data set addresses Mgal-WhiA Ser-258 (Mycoplasma gallisepticum S6, UniProt A0A0F6CKV5 1-295, S259G). Kind of data set: MST; EMSA: 20 mM carbonate pH 9.8, 6% glycerol, 37 C 10 min, gel at 10 C; MST: PBS (10 mM Na phosphate pH 7.4, 140 mM NaCl, 3 mM KCl), 0.05% Tween-20, 50 mM imidazole, 50 nM duplex, 20 C. The conditions noted are these: protein: recombinant; label: 5' FAM (EMSA) or HEX (MST) on strand 1; blunt. (In EMSA bound probe runs differently from free probe, usually more slowly.)

In another data set the target is Mgal-WhiA Lys-216 (Mycoplasma gallisepticum S6, UniProt A0A0F6CKV5 1-295, K217G). Described as above. The conditions noted are these: protein: recombinant; label: 5' FAM (EMSA) or HEX (MST) on strand 1; blunt.
Data set [4] addresses T2, Mgal-WhiA. Kind of data set: MST; no ATP; Hill n = 1.8 ± 0.2; EMSA: 20 mM carbonate pH 9.8, 6% glycerol, 37 C 10 min, gel at 10 C; MST: PBS (10 mM Na phosphate pH 7.4, 140 mM NaCl, 3 mM KCl), 0.05% Tween-20, 50 mM imidazole, 50 nM duplex, 20 C. The conditions noted are these: protein: recombinant; label: 5' FAM (EMSA) or HEX (MST) on strand 1; blunt.
Data set [5] deals with T2, Mgal-WhiA. Kind of data set: EMSA; no ATP; monomer complex; EMSA: 20 mM carbonate pH 9.8, 6% glycerol, 37 C 10 min, gel at 10 C; MST: PBS (10 mM Na phosphate pH 7.4, 140 mM NaCl, 3 mM KCl), 0.05% Tween-20, 50 mM imidazole, 50 nM duplex, 20 C. The note with it: protein: recombinant; label: 5' FAM (EMSA) or HEX (MST) on strand 1; blunt.
Data set [6] deals with T2, Mgal-WhiA. In words: EMSA; 1 mM ATP; monomer complex; EMSA: 20 mM carbonate pH 9.8, 6% glycerol, 37 C 10 min, gel at 10 C; MST: PBS (10 mM Na phosphate pH 7.4, 140 mM NaCl, 3 mM KCl), 0.05% Tween-20, 50 mM imidazole, 50 nM duplex, 20 C. The conditions noted are these: protein: recombinant; label: 5' FAM (EMSA) or HEX (MST) on strand 1; blunt.
Data set [7] addresses T2, Mgal-WhiA. Kind of data set: EMSA; 1 mM ATP; total binding; unit not printed (nM implied); EMSA: 20 mM carbonate pH 9.8, 6% glycerol, 37 C 10 min, gel at 10 C; MST: PBS (10 mM Na phosphate pH 7.4, 140 mM NaCl, 3 mM KCl), 0.05% Tween-20, 50 mM imidazole, 50 nM duplex, 20 C. The conditions noted are these: protein: recombinant, blunt.
Data set [8] deals with T2, Mgal-WhiA. In words: EMSA; no ATP; total binding; EMSA: 20 mM carbonate pH 9.8, 6% glycerol, 37 C 10 min, gel at 10 C; MST: PBS (10 mM Na phosphate pH 7.4, 140 mM NaCl, 3 mM KCl), 0.05% Tween-20, 50 mM imidazole, 50 nM duplex, 20 C. The conditions noted are these: protein: recombinant, blunt.
Another data set deals with Mgal-WhiA Lys-170 (Mycoplasma gallisepticum S6, UniProt A0A0F6CKV5 1-295, K171G). Kind of data set: EMSA; dimeric complex favoured; EMSA: 20 mM carbonate pH 9.8, 6% glycerol, 37 C 10 min, gel at 10 C; MST: PBS (10 mM Na phosphate pH 7.4, 140 mM NaCl, 3 mM KCl), 0.05% Tween-20, 50 mM imidazole, 50 nM duplex, 20 C. The note with it: protein: recombinant; label: 5' FAM (EMSA) or HEX (MST) on strand 1; blunt.

The target of data set [9] is T2, Mgal-WhiA. Kind of data set: MST; 1 mM ATP; n = 1; multistep curve; EMSA: 20 mM carbonate pH 9.8, 6% glycerol, 37 C 10 min, gel at 10 C; MST: PBS (10 mM Na phosphate pH 7.4, 140 mM NaCl, 3 mM KCl), 0.05% Tween-20, 50 mM imidazole, 50 nM duplex, 20 C. The conditions noted are these: protein: recombinant; label: 5' FAM (EMSA) or HEX (MST) on strand 1; blunt.
Data set [10] deals with T2, Mgal-WhiA. In words: EMSA; monomer complex; printed as with ATP, order probably swapped (no ATP likely); EMSA: 20 mM carbonate pH 9.8, 6% glycerol, 37 C 10 min, gel at 10 C; MST: PBS (10 mM Na phosphate pH 7.4, 140 mM NaCl, 3 mM KCl), 0.05% Tween-20, 50 mM imidazole, 50 nM duplex, 20 C. The note with it: protein: recombinant; label: 5' FAM on strand 1; blunt.
The target of data set [11] is T2, Mgal-WhiA. Kind of data set: EMSA; monomer complex; printed as without ATP, order probably swapped (1 mM ATP likely); EMSA: 20 mM carbonate pH 9.8, 6% glycerol, 37 C 10 min, gel at 10 C; MST: PBS (10 mM Na phosphate pH 7.4, 140 mM NaCl, 3 mM KCl), 0.05% Tween-20, 50 mM imidazole, 50 nM duplex, 20 C. The note with it: protein: recombinant; label: 5' FAM on strand 1; blunt.

Where [12] appears, read: label: 5' FAM (EMSA) or HEX (MST) on strand 1.

At Mgal-WhiA [1], `Nc1ncnc2c1ncn2[C@@H]1O[C@H](COP(=O)(O)OP(=O)(O)OP(=O)(O)O)[C@@H](O)[C@H]1O` [ATP] came in with a Kd of 5000 ± 100 µM.

B1: WhiA-F1 (aux half-site) (dsDNA)
DNA 1: AACCGTTGTCAAGTATC
DNA 2: GATACTTGACAACGGTT
Turning to B1, the binding result with Mgal-WhiA [2] is reported as “binds”.

B2: Negative control (plsC promoter) (dsDNA)
DNA 1: AGCGATAAGTTTTACGAATTAAGTCGTTTATTATATAATA
DNA 2: TATTATATAATAAACGACTTAATTCGTAAAACTTATCGCT
As for B2, the Kd with Mgal-WhiA [3] is 0.12 ± 0.05 µM.

B3: rpsJ WT (dsDNA)
DNA 1: AAAGATTGCTGATACACCAAAAACCGTTGTCAAGTATCAG
DNA 2: CTGATACTTGACAACGGTTTTTGGTGTATCAGCAATCTTT
As for B3, the dissociation constant Kd with Mgal-WhiA Ser-258 worked out at 2.6 ± 0.2 µM; in the data set with Mgal-WhiA Lys-216, 1.7 ± 0.1 µM; with Mgal-WhiA [4], 0.7 ± 0.1 µM; with Mgal-WhiA [5] it was 0.61 ± 0.1 µM; with Mgal-WhiA [6], 0.24 ± 0.07 µM; with Mgal-WhiA [7] (setting [12]), 0.68 ± 0.09 µM. In addition, the Kd worked out at 0.7 ± 0.08 µM with Mgal-WhiA [8] (setting [12]) and 0.088 ± 0.012 µM with Mgal-WhiA [9]. For the same molecule, the binding result in the data set with Mgal-WhiA Lys-170 is recorded as “binds”.

B4: Mut1 (dsDNA)
DNA 1: AAAGATTGCTGATACACCAAAAACCAGACTCAAGTATCAG
DNA 2: CTGATACTTGAGTCTGGTTTTTGGTGTATCAGCAATCTTT
Turning to B4, the Kd in the data set with Mgal-WhiA [10] is 0.85 ± 0.13 µM; with Mgal-WhiA [7] (label: 5' FAM on strand 1), 0.43 ± 0.09 µM; with Mgal-WhiA [8] (label: 5' FAM on strand 1), 0.75 ± 0.03 µM; with Mgal-WhiA [11] it was 0.29 ± 0.18 µM.
